Blank lines part the entries; values can stand above or below the molecule they belong to.
What was measured:
[1] = molecular target: Human EphA2-Fc fusion protein (human EphA2 fused with the Fc portion of a human IgG1) (human) (UniProt P29317); test: single point ELISA: periplasmic Fab captured on 20 ng goat anti-human Fab, biotinylated human EphA2-Fc, neutravidin-HRP
[2] = molecular target: Human EphA2-Fc fusion protein (human EphA2 fused with the Fc portion of a human IgG1) (human) (UniProt P29317); test: single point ELISA, 500 ng goat anti-human Fab capture, biotinylated EphA2-Fc; plate of clone VH-233/VL-12C8
[3] = molecular target: Human EphA2-Fc fusion protein (human EphA2 fused with the Fc portion of a human IgG1) (human) (UniProt P29317); test: single point ELISA: periplasmic Fab captured on 100 ng goat anti-human Fab, biotinylated human EphA2-Fc, neutravidin-HRP
[4] = molecular target: Human EphA2-Fc fusion protein (human EphA2 fused with the Fc portion of a human IgG1) (human) (UniProt P29317); test: single point ELISA: periplasmic Fab captured on 500 ng goat anti-human Fab, biotinylated human EphA2-Fc, neutravidin-HRP
[5] = molecular target: Human EphA2-Fc fusion protein (human EphA2 fused with the Fc portion of a human IgG1) (human) (UniProt P29317); test: single point ELISA, 500 ng goat anti-human Fab capture, biotinylated EphA2-Fc; plate of clone VH-233/VL-8G7
[6] = molecular target: Human EphA2-Fc fusion protein (human EphA2 fused with the Fc portion of a human IgG1) (human) (UniProt P29317); test: single point ELISA: periplasmic Fab captured on 500 ng goat anti-human Fab, biotinylated human EphA2-Fc, neutravidin-HRP; remark: listed apart in the source
[7] = molecular target: Human EphA2-Fc fusion protein (human EphA2 fused with the Fc portion of a human IgG1) (human) (UniProt P29317); test: single point ELISA, 500 ng goat anti-human Fab capture, biotinylated EphA2-Fc; plate of clone VH-2G6/VL-12C8
[8] = molecular target: Human EphA2-Fc fusion protein (human EphA2 fused with the Fc portion of a human IgG1) (human) (UniProt P29317); test: single point ELISA: periplasmic Fab captured on 500 ng goat anti-human Fab, biotinylated human EphA2-Fc, neutravidin-HRP; remark: listed apart in the source
[9] = molecular target: Human EphA2-Fc fusion protein (human EphA2 fused with the Fc portion of a human IgG1) (human) (UniProt P29317); test: single point ELISA, 500 ng goat anti-human Fab capture, biotinylated EphA2-Fc; plate of clone VH-7E8/VL-8G7
[10] = molecular target: Human EphA2-Fc fusion protein (human EphA2 fused with the Fc portion of a human IgG1) (human) (UniProt P29317); test: single point ELISA, 500 ng goat anti-human Fab capture, biotinylated EphA2-Fc; plate of clone VH-6H11/VL-8G7
[11] = molecular target: Human EphA2-Fc fusion protein (human EphA2 fused with the Fc portion of a human IgG1) (human) (UniProt P29317); test: SPR (BIAcore 3000), IgG over immobilized EphA2-Fc, 1:1 Langmuir fit
[12] = molecular target: Human EphA2-Fc fusion protein (human EphA2 fused with the Fc portion of a human IgG1) (human) (UniProt P29317); test: SPR (BIAcore 3000), IgG over immobilized EphA2-Fc (~500 RU), 1:1 Langmuir fit

Human EphA2-Fc fusion protein (human EphA2 fused with the Fc portion of a human IgG1) (human), sequence (P29317 24-534 limits assumed): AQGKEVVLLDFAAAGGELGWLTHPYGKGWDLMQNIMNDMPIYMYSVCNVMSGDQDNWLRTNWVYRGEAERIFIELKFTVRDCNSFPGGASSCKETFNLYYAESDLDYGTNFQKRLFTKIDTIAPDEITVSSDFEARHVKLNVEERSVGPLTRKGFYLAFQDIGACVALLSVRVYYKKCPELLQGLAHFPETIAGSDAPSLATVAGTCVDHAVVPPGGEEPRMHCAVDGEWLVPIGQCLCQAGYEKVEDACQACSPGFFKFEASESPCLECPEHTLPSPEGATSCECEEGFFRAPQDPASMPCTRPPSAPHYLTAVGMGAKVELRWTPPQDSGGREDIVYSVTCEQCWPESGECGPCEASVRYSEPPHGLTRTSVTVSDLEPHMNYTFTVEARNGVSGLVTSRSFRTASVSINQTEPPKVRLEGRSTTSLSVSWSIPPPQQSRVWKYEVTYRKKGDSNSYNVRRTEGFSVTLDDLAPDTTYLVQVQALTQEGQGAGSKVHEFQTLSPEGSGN

OD450 (background signal) [1]: 0.1 | OD450 (background signal) [2]: 0.1 | OD450 (background signal) [3]: 0.1 to 0.4 | OD450 (background signal) [4]: 0.06 to 0.2 | OD450 (background signal) [5]: 0.2 | OD450 (background signal) [6]: 0.3 | OD450 (background signal) [7]: 0.3 | OD450 (background signal) [8]: 0.07 to 0.1 | OD450 (background signal) [9]: 0.2 | OD450 (background signal) [10]: 0.2
Molecule: irrelevant antibody (MEDI-493)

Kd [11]: 0.4 nM | koff [11]: 0.00011 s⁻¹ | kon [11]: 280000 M⁻¹ s⁻¹
B1: mouse anti-human EphA2 monoclonal antibody B233 (antibody, from a related filing, V domains shown)
VH: EVKLVESGGGLVQPGGSLSLSCAASGFTFTDYSMNWVRQPPGKALEWLGFIRNKANDYTTEYSASVKGRFTISRDNSQSILYLQMNALRAEDSATYYCVRYPRYHAMDSWGQGTSVTVSS
VL: DIVLTQSPATLSVTPGDSVNLSCRASQSISNNLHWYQQKSHESPRLLIKYVFQSISGIPSRFSGSGSGTDFTLSINSVETEDFGMYFCQQSNSWPLTFGAGTKLELK

Kd [11]: 0.3 nM | koff [11]: 8e-05 s⁻¹ | kon [11]: 240000 M⁻¹ s⁻¹
B2: chimaeric form of mAb B233 (VH-233/VL-233) as full length human IgG1 (antibody, from a related filing, V domains shown)
VH: EVKLVESGGGLVQPGGSLSLSCAASGFTFTDYSMNWVRQPPGKALEWLGFIRNKANDYTTEYSASVKGRFTISRDNSQSILYLQMNALRAEDSATYYCVRYPRYHAMDSWGQGTSVTVSS
VL: DIVLTQSPATLSVTPGDSVNLSCRASQSISNNLHWYQQKSHESPRLLIKYVFQSISGIPSRFSGSGSGTDFTLSINSVETEDFGMYFCQQSNSWPLTFGAGTKLELK

Kd [12]: 5.94 nM | koff [12]: 0.00307 s⁻¹ | kon [12]: 517000 M⁻¹ s⁻¹
B3: mouse anti-human EphA2 monoclonal antibody EA2 (antibody, from a related filing, V domains shown)
VH: DVKLVESGGGLVKPGGSLKLSCAASGFTFSSYTMSWVRQTPEKRLEWVATISSGGTYTYYPDSVKGRFTISRDNAKNTLYLQMSSLKSEDTAMYYCTREAIFTYWGQGTLVTVSA
VL: DIKMTQSPSSMYASLGERVTITCKASQDINNYLSWFQQKPGKSPKTLIYRANRLVDGVPSRFSGSGSGQDYSLTISSLEYEDMGIYYCLKYDEFPYTFGGGTKLEIK
